From patent publication US20150037340A1 (PEIRRE FABRE MEDICAMENT, published 2015)

Columns and labels:
[1] = target: T1, recombinant mouse Axl-Fc (R and D systems, cat No 854-AX/CF) (mouse, UniProt Q00993 19-445); experiment: ELISA on coated rmAxl-Fc, detection with goat anti-mouse IgG-HRP
T1 construct: extracellular domain; Bought protein; also called rmAxl-Fc; murine Axl ECD domain; not shown: Fc portion (coating control with anti-human IgG Fc)
T1 sequence (looked up): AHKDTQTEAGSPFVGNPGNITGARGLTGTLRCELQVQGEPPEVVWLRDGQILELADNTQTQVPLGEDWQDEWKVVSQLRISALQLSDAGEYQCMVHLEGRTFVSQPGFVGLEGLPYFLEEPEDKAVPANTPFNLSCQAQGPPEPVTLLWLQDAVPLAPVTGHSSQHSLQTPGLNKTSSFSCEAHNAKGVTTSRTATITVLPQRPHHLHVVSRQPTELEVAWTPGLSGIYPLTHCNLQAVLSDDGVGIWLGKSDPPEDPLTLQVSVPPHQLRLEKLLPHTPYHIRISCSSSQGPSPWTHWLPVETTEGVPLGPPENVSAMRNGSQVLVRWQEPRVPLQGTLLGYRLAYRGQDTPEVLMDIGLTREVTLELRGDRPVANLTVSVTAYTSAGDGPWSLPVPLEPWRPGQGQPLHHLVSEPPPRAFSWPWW
Protocol: Briefly, the recombinant mouse Axl-Fc (R and D systems, cat No 854-AX/CF) proteins were coated overnight at 4° C. to Immulon II 96-well plates and, after a 1 h blocking step with a 0.5% gelatine solution, the 1613F12 purified antibody was added for one additional hour at 37° C. at starting concentration of 5 μg/m (3.33 10⁻⁸M). Then ½ serial dilutions were done over 12 columns. Plates were then washed and a goat anti-mouse (Jackson) specific IgG HRP was added for 1 h at 37° C. Reaction development was performed using the TMB substrate solution. […] Coating controls are performed in presence of a goat anti-human IgG Fc polyclonal serum coupled with HRP (Jackson, ref 109-035-098) and/or in presence of a HRP-coupled anti-Histidine antibody (R and D Systems, ref: MAB050H).

[2] = target: T2, recombinant human Mer-Fc (R and D Systems, cat No 891-MR) (human, UniProt Q12866 26-499, limits assumed); experiment: ELISA on coated rhMer-Fc, detection with goat anti-mouse IgG-HRP
T2 construct: Bought protein; also called rhMer-Fc; rhMer; not shown: Fc portion
T2 sequence (looked up): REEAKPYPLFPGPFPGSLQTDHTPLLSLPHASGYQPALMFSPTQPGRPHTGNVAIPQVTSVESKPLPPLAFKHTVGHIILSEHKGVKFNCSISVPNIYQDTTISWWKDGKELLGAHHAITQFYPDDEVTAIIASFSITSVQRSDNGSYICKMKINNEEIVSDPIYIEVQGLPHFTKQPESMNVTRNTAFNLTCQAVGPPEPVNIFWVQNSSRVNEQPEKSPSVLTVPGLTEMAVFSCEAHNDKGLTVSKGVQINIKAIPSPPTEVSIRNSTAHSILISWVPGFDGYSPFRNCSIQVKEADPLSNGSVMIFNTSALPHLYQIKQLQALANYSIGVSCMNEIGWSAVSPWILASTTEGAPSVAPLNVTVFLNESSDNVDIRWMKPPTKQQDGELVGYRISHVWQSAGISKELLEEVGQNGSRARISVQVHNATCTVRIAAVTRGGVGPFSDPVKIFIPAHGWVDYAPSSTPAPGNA
Protocol: Then ½ serial dilutions were done over 12 columns. Plates were washed and a goat anti-mouse (Jackson) specific IgG-HRP was added for 1 h at 37° C. Reaction development was performed using the TMB substrate solution. […] Coating controls were performed in presence of a goat anti-human IgG Fc polyclonal serum labelled with HRP (Jackson, ref 109-035-098) and/or in presence of a HRP-coupled anti-Histidine antibody (R and D Systems, ref: MAB050H). Results are represented in FIGS. 2A, 2B and 2C, respectively.

[3] = target: T3, recombinant human Axl-Fc (R and D Systems, cat No 154-AL / 154AL/CF) (human, UniProt P30530 26-451); experiment: competition ELISA: rhAxl-Fc pre-incubated with the antibody, loaded on coated rhGas6 (blocked ligand), bound rhAxl-Fc detected with anti-human IgG-HRP
T3 construct: Bought protein; also called rhAxl-Fc; rh Axl-Fc protein; not shown: human IgG Fc portion (detected with anti-human IgG Fc)
T3 sequence: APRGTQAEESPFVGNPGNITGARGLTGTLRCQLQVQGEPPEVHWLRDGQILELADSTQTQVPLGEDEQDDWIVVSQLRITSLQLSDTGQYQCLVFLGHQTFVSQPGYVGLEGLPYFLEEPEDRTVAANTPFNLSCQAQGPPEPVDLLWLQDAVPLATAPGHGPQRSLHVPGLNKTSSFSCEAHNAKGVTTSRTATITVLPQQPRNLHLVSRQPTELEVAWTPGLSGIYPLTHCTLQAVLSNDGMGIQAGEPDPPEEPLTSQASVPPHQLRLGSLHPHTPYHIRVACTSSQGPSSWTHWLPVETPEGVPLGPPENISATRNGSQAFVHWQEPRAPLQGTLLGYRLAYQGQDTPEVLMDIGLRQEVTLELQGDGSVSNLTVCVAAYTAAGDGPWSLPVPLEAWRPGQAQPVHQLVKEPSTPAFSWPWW
Protocol: To further characterize the 1613F12, Gas6 competition assays were performed. In this assay, the free rhAxl-Fc protein and the 1613F12 are incubated to form antigen-antibody complex and then the complexes are loaded on Gas6-coated surface in the assay plate. The unbound antibody-antigen complexes are washed out before adding enzyme-linked secondary antibody against the human Fc portion of the rhAxl-Fc protein. The substrate is then added and the antigen concentration can be determined by the signal strength elicited by the enzyme-substrate reaction.
Briefly reaction mixture comprising the rhAxl-Fc protein in the presence or not of the anti-Axl Mabs to be tested, are prepared on a separate saturated (0.5% gelatin in PBS 1×) plate. Serial 1: 2 dilutions (starting from 80 μg/ml on 12 columns) of murine anti-Axl antibodies are performed. […] After homogenisation, the competition samples are loaded on Gas6-coated plates with a 6 μg/m rhGas6 solution in PBS (R and D Systems cat No 885-GS-CS/CF). After incubation and several washes, bound rhAxl-Fc proteins are detected using a goat anti-Human IgG-HRP (Jackson, ref. 109-035-098). Once bound, the TMB substrate is added to the plates. The reaction is stopped by addition of 1M H₂SO₄ acid solution and the obtained optical densities read at 450 nm using a microplate reader instrument.

B1: 1613F12 antibody (murine form) (antibody, V domains shown)
VH: EVHLQQSGAELVKPGASVKLSCTASGFNIRDTYIHWVKQRPEQGLEWIGRLDPANGHTKYGPNFQGRATMTSDTSSNTAYLQLSSLTSEDTAVYYCARGAYYYGSSGLFYFDYWGQGTTLSVSS
VL: DVQITQSPSYLATSPGETITINCRASKSISKYLAWYQEKPGKTNKLLIYSGSTLQSGVPSRFSGSGSGTDFTLTISSLEPEDFAMYFCQQHHEYPLTFGAGTELELK
notes: Whole murine monoclonal antibody purified from a hybridoma; a murine IgG1 (9G4) serves as its isotype control; also called m1613F12; monoclonal antibody 1613F12 derived from the hybridoma I-4505
[1]
  binding result: no binding (tested: log -7.5 M)
[2]
  binding result: no binding (tested: log -7.5 M)
[3]
  IC50 (read off the curve): ~20 nM
